Measurements: IntAct's records for PubMed 18192679

B1: Huntingtin-associated protein 1 (Homo sapiens), P54257-2 (parent)
chain: MRPKRLGRCCAGSRLGPGDPAALTCAPSPSASPAPEPSAQPQARGTGQRVGSRATSGSQFLSEARTGARPASEAGAKAGARRPSAFSAIQGDVRSMPDNSDAPWTRFVFQGPFGSRATGRGTGKAAGIWKTPAAYVGRRPGVSGPERAAFIRELEEALCPNLPPPVKKITQEDVKVMLYLLEELLPPVWESVTYGMVLQRERDLNTAARIGQSLVKQNSVLMEENSKLEALLGSAKEEILYLRHQVNLRDELLQLYSDSDEEDEDEEEEEEEKEAEEEQEEEEAEEDLQCAHPCDAPKLISQEALLHQHHCPQLEALQEKLRLLEEENHQLREEASQLDTLEDEEQMLILECVEQFSEASQQMAELSEVLVLRLENYERQQQEVARLQAQVLKLQQRCRMYGAETEKLQKQLASEKEIQMQLQEEETLPGFQETLAEELRTSLRRMISDPVYFMERNYEMPRGDTSSLRYDFRYSEDREQVRGFEAEEGLMLAADIMRGEDFTPAEEFVPQEELGAAKKVPAEEGVMEEAELVSEETEGWEEVELELDEATRMNVVTSALEASGLGPSHLDMNYVLQQLANWQDAHYRRQLRWKMLQKGECPHGALPAASRTSCRSSCR

Variants of: B1
Conditions: with hd_human HTT

| Variant | effect of a mutation on the interaction |
| --- | --- |
| T441M | increasing interaction |
